Reference: patent publication US20240190962A1 (IMMUNOWAKE, published 2024)

T1: human IL-2 receptor (IL-2Rα, IL-2Rβ, IL-2Rγ) (human, UniProt P01589 22-272; P14784 27-551; P31785 23-369)
T1 sequence (looked up) 1: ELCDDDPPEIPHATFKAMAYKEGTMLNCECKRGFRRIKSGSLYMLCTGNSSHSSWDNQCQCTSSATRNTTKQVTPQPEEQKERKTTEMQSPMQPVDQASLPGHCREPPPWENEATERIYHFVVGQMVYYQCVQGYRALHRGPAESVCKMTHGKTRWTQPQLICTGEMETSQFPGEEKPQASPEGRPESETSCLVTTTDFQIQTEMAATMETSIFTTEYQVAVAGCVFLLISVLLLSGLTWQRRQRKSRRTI
T1 sequence (looked up) 2: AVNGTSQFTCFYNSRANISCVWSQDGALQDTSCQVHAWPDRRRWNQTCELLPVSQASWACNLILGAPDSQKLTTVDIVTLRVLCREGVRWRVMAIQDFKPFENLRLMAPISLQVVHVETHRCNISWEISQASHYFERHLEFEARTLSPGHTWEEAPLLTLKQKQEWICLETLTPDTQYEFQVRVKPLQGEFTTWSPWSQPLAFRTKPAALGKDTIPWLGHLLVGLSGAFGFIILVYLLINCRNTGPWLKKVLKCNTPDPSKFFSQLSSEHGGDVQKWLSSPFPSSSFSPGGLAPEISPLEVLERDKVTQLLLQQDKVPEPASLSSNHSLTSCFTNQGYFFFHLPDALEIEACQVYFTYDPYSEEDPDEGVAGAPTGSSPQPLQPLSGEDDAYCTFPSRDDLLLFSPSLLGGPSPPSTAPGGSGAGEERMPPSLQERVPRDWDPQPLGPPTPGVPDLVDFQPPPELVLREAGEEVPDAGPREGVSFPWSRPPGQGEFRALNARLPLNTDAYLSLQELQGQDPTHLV
T1 sequence (looked up) 3: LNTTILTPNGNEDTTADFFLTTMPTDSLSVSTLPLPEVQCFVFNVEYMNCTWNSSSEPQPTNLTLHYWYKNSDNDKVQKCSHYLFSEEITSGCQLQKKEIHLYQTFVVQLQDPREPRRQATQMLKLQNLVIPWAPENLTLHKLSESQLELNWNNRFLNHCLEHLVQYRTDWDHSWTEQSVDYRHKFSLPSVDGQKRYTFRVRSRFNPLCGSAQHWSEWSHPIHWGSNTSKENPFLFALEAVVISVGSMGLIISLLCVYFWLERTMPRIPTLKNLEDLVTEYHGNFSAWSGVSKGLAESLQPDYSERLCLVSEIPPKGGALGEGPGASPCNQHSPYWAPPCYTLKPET


What was measured:
[1] = target: T1, human IL-2 receptor (IL-2Rα, IL-2Rβ, …); test: cell-based or functional assay
[2] = target: human IL-12 receptor complex (IL-12Rβ1, IL-12Rβ2) (human, UniProt P42701 24-662; Q99665 24-862); test: cell-based or functional assay
Sequence of human IL-12 receptor complex (IL-12Rβ1, IL-12Rβ2) (Q99665 24-862, chain 2 of 2, other chains not shown): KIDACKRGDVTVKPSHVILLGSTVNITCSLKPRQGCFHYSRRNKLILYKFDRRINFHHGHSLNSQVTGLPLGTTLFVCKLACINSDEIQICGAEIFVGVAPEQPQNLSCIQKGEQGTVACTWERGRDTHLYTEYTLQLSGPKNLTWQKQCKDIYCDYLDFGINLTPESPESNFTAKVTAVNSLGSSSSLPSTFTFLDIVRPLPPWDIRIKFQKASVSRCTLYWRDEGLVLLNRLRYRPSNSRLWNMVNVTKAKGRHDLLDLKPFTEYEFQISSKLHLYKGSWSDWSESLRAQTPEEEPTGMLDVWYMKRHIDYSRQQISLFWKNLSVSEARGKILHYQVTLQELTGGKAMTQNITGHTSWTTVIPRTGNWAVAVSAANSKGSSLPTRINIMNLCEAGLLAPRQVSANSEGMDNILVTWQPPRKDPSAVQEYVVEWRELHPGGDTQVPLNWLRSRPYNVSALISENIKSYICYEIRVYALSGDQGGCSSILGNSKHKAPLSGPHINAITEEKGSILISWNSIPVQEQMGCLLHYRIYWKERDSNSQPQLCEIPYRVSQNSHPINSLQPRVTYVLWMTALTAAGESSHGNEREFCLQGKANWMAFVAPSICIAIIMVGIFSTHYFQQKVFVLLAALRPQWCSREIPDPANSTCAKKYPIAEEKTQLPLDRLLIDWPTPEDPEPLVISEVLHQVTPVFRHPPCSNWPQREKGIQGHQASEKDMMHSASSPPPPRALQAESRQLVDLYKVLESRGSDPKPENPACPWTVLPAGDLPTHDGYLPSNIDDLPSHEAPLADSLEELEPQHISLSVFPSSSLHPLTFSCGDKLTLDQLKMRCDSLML

IL-2 biological activity, HEK-IL-2 [1] [%] | IL-2 biological activity, HEK-IL-2-PD-1 [1] [%] | IL-12 biological activity, HEK-IL-12 [2] [%] | IL-12 biological activity, HEK-IL-12-PD-1 [2] [%] | Binder
4 | 35 | < 0.2 | 19 | IL-2(L18R/Q22E/R38D/K43E/E61R)/IL-12(E59A/F60A)/PD-L1(mut2)-Fc (Fc fusion) chain 1: FTVTVPKDLYVVEYGSNMTIECKFPVEKQLDLAALQVYWMMEDKNIIQFVHGEEDLKVQHSSYRQRARLLKDQLSLGNAALQITDVKLQDAGVYTCLIAYKGADYKRITVKVNAPYNKINQRILVVDPVTSEHELTCQAEGYPKAEVIWTSSDHQVLSGKTTTTNSKREEKLFNVTSTLRINTTTNEIFYCTFRRLDPEENHTAELVIPELPLAHPPNERGGGGSGGGIWELKKDVYVVELDWYPDAPGEMVVLTCDTPEEDGITWTLDQSSEVLGSGKTLTIQVKAAGDAGQYTCHKGGEVLSHSLLLLHKKEDGIWSTDILKDQKEPKNKTFLRCEAKNYSGRFTCWWLTTISTDLTFSVKSSRGSSDPQGVTCGAATLSAERVRGDNKEYEYSVECQEDSACPAAEESLPIEVMVDAVHKLKYENYTSSFFIRDIIKPDPPKNLQLKPLKNSRQVEVSWEYPDTWSTPHSYFSLTFCVQVQGKSKREKKDRVFTDKTSATVICRKNASISVRAQDRYYSSSWSEWASVPCSGGGGSGGGSGGGGSRNLPVATPDPGMFPCLHHSQNLLRAVSNMLQKARQTLEFYPCTSEEIDHEDITKDKTSTVEACLPLELTKNESCLNSRETSFITNGSCLASRKTSFMMALCLSSIYEDLKMYQVEFKTMNAKLLMDPKRQIFLDQNMLAVIDELMQALNFNSETVPQKSSLEEPDFYKTKIKLCILLHAFRIRAVTIDRVMSYLNASGGGGSGGGDKTHTCPPCPAPEDEGGPSVFLFPPKPKDTLMISRTPEVTCVVVDVSHEDPEVKFNWYVDGVEVHNAKTKPREEQYNSTYRVVSVLTVLHQDWLNGKEYKCKVSNKALPAPIEKTISKAKGQPREPQVYVYPPSREEMTKNQVSLTCLVKGFYPSDIAVEWESNGQPENNYKTTPPVLDEDGSFALVSKLTVDKSRWQQGNVFSCSVMHEALHNHYTQKSLSLSPGK chain 2: FTVTVPKDLYVVEYGSNMTIECKFPVEKQLDLAALQVYWMMEDKNIIQFVHGEEDLKVQHSSYRQRARLLKDQLSLGNAALQITDVKLQDAGVYTCLIAYKGADYKRITVKVNAPYNKINQRILVVDPVTSEHELTCQAEGYPKAEVIWTSSDHQVLSGKTTTTNSKREEKLFNVTSTLRINTTTNEIFYCTFRRLDPEENHTAELVIPELPLAHPPNERGGGSGAPTSSSTKKTQLQLEHLRLDLEMILNGINNYKNPKLTDMLTFEFYMPKKATELKHLQCLERELKPLEEVLNLAQSKNFHLRPRDLISNINVIVLELKGSETTFMCEYADETATIVEFLNRWITFCQSIISTLTGGGGSGGGDKTHTCPPCPAPEKKGGPSVFLFPPKPKDTLMISRTPEVTCVVVDVSHEDPEVKFNWYVDGVEVHNAKTKPREEQYNSTYRVVSVLTVLHQDWLNGKEYKCKVSNKALPAPIEKTISKAKGQPREPQVYVLPPSREEMTKNQVSLLCLVKGFYPSDIAVEWESNGQPENRYMTWPPVLDSDGSFFLYSKLTVDKSRWQQGNVFSCSVMHEALHNHYTQKSLSLSPGK
2 | 20 | < 0.2 | 25 | IL-2(R38D/K43E/E61R/Q126T)/IL-12(E59A/F60A)/PD-L1(mut2)-Fc (Fc fusion) chain 1: FTVTVPKDLYVVEYGSNMTIECKFPVEKQLDLAALQVYWMMEDKNIIQFVHGEEDLKVQHSSYRQRARLLKDQLSLGNAALQITDVKLQDAGVYTCLIAYKGADYKRITVKVNAPYNKINQRILVVDPVTSEHELTCQAEGYPKAEVIWTSSDHQVLSGKTTTTNSKREEKLFNVTSTLRINTTTNEIFYCTFRRLDPEENHTAELVIPELPLAHPPNERGGGGSGGGIWELKKDVYVVELDWYPDAPGEMVVLTCDTPEEDGITWTLDQSSEVLGSGKTLTIQVKAAGDAGQYTCHKGGEVLSHSLLLLHKKEDGIWSTDILKDQKEPKNKTFLRCEAKNYSGRFTCWWLTTISTDLTFSVKSSRGSSDPQGVTCGAATLSAERVRGDNKEYEYSVECQEDSACPAAEESLPIEVMVDAVHKLKYENYTSSFFIRDIIKPDPPKNLQLKPLKNSRQVEVSWEYPDTWSTPHSYFSLTFCVQVQGKSKREKKDRVFTDKTSATVICRKNASISVRAQDRYYSSSWSEWASVPCSGGGGSGGGSGGGGSRNLPVATPDPGMFPCLHHSQNLLRAVSNMLQKARQTLEFYPCTSEEIDHEDITKDKTSTVEACLPLELTKNESCLNSRETSFITNGSCLASRKTSFMMALCLSSIYEDLKMYQVEFKTMNAKLLMDPKRQIFLDQNMLAVIDELMQALNFNSETVPQKSSLEEPDFYKTKIKLCILLHAFRIRAVTIDRVMSYLNASGGGGSGGGDKTHTCPPCPAPEDEGGPSVFLFPPKPKDTLMISRTPEVTCVVVDVSHEDPEVKFNWYVDGVEVHNAKTKPREEQYNSTYRVVSVLTVLHQDWLNGKEYKCKVSNKALPAPIEKTISKAKGQPREPQVYVYPPSREEMTKNQVSLTCLVKGFYPSDIAVEWESNGQPENNYKTTPPVLDEDGSFALVSKLTVDKSRWQQGNVFSCSVMHEALHNHYTQKSLSLSPGK chain 2: FTVTVPKDLYVVEYGSNMTIECKFPVEKQLDLAALQVYWMMEDKNIIQFVHGEEDLKVQHSSYRQRARLLKDQLSLGNAALQITDVKLQDAGVYTCLIAYKGADYKRITVKVNAPYNKINQRILVVDPVTSEHELTCQAEGYPKAEVIWTSSDHQVLSGKTTTTNSKREEKLFNVTSTLRINTTTNEIFYCTFRRLDPEENHTAELVIPELPLAHPPNERGGGSGAPTSSSTKKTQLQLEHLLLDLQMILNGINNYKNPKLTDMLTFEFYMPKKATELKHLQCLERELKPLEEVLNLAQSKNFHLRPRDLISNINVIVLELKGSETTFMCEYADETATIVEFLNRWITFCTSIISTLTGGGGSGGGDKTHTCPPCPAPEKKGGPSVFLFPPKPKDTLMISRTPEVTCVVVDVSHEDPEVKFNWYVDGVEVHNAKTKPREEQYNSTYRVVSVLTVLHQDWLNGKEYKCKVSNKALPAPIEKTISKAKGQPREPQVYVLPPSREEMTKNQVSLLCLVKGFYPSDIAVEWESNGQPENRYMTWPPVLDSDGSFFLYSKLTVDKSRWQQGNVFSCSVMHEALHNHYTQKSLSLSPGK
